Results published in US20240132578A1.

How the values were obtained:
Assay in all cases: cell-based or functional assay
[1] = molecular target: HIV-1 Env of pseudovirus ZM214 (HIV-1)
[2] = molecular target: HIV-1 Env of isolate APV6 (clade B) (HIV-1)
[3] = molecular target: HIV-1 APV17 Env (HIV-1 isolate APV17 (clade B))
[4] = molecular target: HIV-1 93UG077 Env (HIV-1 isolate 93UG077 (clade A))
[5] = molecular target: HIV-1 92BR020 Env (HIV-1 isolate 92BR020 (clade B))
[6] = molecular target: HIV-1 94UG103 envelope glycoprotein (Env), clade A pseudovirus (HIV-1)
[7] = molecular target: HIV-1 93IN905 envelope glycoprotein (Env), clade C pseudovirus (HIV-1)
[8] = molecular target: HIV-1 MGRM-C-026 envelope glycoprotein (Env), clade C pseudovirus (HIV-1)
[9] = molecular target: HIV-1 93UG077 envelope glycoprotein (Env) on virus (HIV-1, clade A, isolate 93UG077)
[10] = molecular target: HIV-1 JRCSF envelope glycoprotein (Env) on virus (HIV-1, clade B, isolate JRCSF) (UniProt P20871)
[11] = molecular target: HIV-1 92RW020 envelope glycoprotein (Env) on virus (HIV-1, clade A, isolate 92RW020)
[12] = molecular target: HIV-1 MGRM-AG-005 envelope glycoprotein (Env) on virus (HIV-1, clade AG, isolate MGRM-AG-005)
[13] = molecular target: HIV-1 APV17 envelope glycoprotein (Env) on virus (HIV-1, clade B, isolate APV17)
[14] = molecular target: HIV-1 94UG103 envelope glycoprotein (Env) on virus (HIV-1, clade A, isolate 94UG103)
[15] = molecular target: HIV-1 MGRM-C-028 Env (pseudovirus) (HIV-1)
[16] = molecular target: HIV-1 APV6 Env (pseudovirus) (HIV-1)
[17] = molecular target: HIV-1 92BR020 Env (pseudovirus) (HIV-1)
[18] = molecular target: HIV-1 envelope glycoprotein (Env) of isolate APV13 (HIV-1)
[19] = molecular target: HIV-1 envelope glycoprotein (Env) of isolate 92UG005 (HIV-1)
[20] = molecular target: HIV-1 envelope glycoprotein (Env) of isolate 92UG024 (HIV-1)
[21] = molecular target: HIV-1 envelope glycoprotein (Env) of isolate NL43 (HIV-1)
[22] = molecular target: HIV-1 envelope glycoprotein (Env) of isolate 92RW020 (HIV-1)
[23] = molecular target: HIV-1 92RW020 envelope glycoprotein (Env) (HIV-1)
[24] = molecular target: HIV-1 MGRM-C-028 envelope glycoprotein (Env) (HIV-1)
[25] = molecular target: HIV-1 CMU02 envelope glycoprotein (Env) (HIV-1)
[26] = molecular target: HIV-1 92TH021 envelope glycoprotein (Env) (HIV-1)
[27] = molecular target: HIV-1 Env of isolate APV_13 (subtype B), on pseudovirus (HIV-1)
[28] = molecular target: HIV-1 Env of isolate JRFL (subtype B), on pseudovirus (HIV-1)
[29] = molecular target: HIV-1 envelope glycoprotein (Env) of isolate MG RM-A-004 (HIV-1)

5329_C19 (PGT-136) (antibody), sequence (VH): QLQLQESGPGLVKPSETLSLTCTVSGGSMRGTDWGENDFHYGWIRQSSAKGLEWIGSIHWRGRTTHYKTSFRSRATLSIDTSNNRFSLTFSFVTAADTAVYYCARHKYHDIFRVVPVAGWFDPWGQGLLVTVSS
5329_C19 (PGT-136) (antibody), sequence (VL): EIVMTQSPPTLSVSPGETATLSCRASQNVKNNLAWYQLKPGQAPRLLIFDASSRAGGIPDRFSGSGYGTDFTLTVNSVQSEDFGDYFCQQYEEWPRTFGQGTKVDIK
1443_C16 (PG16) (TCN-116) (antibody), sequence (VH): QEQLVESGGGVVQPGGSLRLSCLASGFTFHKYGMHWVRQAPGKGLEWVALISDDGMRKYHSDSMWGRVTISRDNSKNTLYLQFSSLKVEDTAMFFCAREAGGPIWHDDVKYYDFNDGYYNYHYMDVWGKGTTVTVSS
1443_C16 (PG16) (TCN-116) (antibody), sequence (VL): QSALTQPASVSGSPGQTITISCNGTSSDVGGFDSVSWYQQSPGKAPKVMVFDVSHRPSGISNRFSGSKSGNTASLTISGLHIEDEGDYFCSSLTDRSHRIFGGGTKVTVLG

1443_C16 (PG16) (TCN-116) (antibody)
IC50, pseudovirus neutralization (TZM-bl assay) [1]: > 25 µg/mL

1496_C09 (PG9) (TCN-109) (antibody)
Neutralization IC80 [2]: 1.13 µg/mL
Neutralization IC90 [2]: 3.21 µg/mL
Neutralization IC95 [2]: 9.65 µg/mL
neutralization IC50 [2]: 0.214 µg/mL

4838_L06 (PGT-121) (antibody)
Neutralization IC80 [3]: 0.371 µg/mL
Neutralization IC90 [3]: 0.799 µg/mL
Neutralization IC95 [3]: 1.55 µg/mL
Neutralization IC90 [4]: 0.369 µg/mL
Neutralization IC95 [4]: 0.74 µg/mL
Neutralization IC80 [5]: 0.0532 µg/mL
Neutralization IC90 [5]: 0.101 µg/mL

4858_P08 (PGT-123) (antibody)
IC50, pseudovirus neutralization [6]: 0.846 µg/mL
IC80 (pseudovirus neutralization) [6]: 3.29 µg/mL
IC90 (pseudovirus neutralization) [6]: 8.56 µg/mL
IC95 (pseudovirus neutralization) [6]: > 10 µg/mL
IC50, pseudovirus neutralization [7]: 0.0071 µg/mL
IC80 (pseudovirus neutralization) [7]: 0.0281 µg/mL
IC90 (pseudovirus neutralization) [7]: 0.0625 µg/mL
IC95 (pseudovirus neutralization) [7]: 0.131 µg/mL
IC50, pseudovirus neutralization [8]: 0.0031 µg/mL
IC80 (pseudovirus neutralization) [8]: 0.0094 µg/mL
IC90 (pseudovirus neutralization) [8]: 0.0183 µg/mL
IC95 (pseudovirus neutralization) [8]: 0.0338 µg/mL

4877_D15 (PGT-122) (antibody)
Neutralization IC80 [9]: 0.931 µg/mL
Neutralization IC90 [9]: 2.1 µg/mL
Neutralization IC95 [9]: 3.88 µg/mL
neutralization IC50 [9]: 0.191 µg/mL
Neutralization IC80 [10]: 0.245 µg/mL
Neutralization IC90 [10]: 0.494 µg/mL
Neutralization IC95 [10]: 0.926 µg/mL
neutralization IC50 [10]: 0.0727 µg/mL
Neutralization IC80 [11]: 0.0407 µg/mL
Neutralization IC90 [11]: 0.113 µg/mL
Neutralization IC95 [11]: 0.289 µg/mL
neutralization IC50 [11]: 0.0072 µg/mL
Neutralization IC80 [12]: > 10 µg/mL
Neutralization IC90 [12]: > 10 µg/mL
Neutralization IC95 [12]: > 10 µg/mL
neutralization IC50 [12]: > 10 µg/mL
Neutralization IC80 [13]: 1.76 µg/mL
Neutralization IC90 [13]: 3.58 µg/mL
Neutralization IC95 [13]: 6.92 µg/mL
neutralization IC50 [13]: 0.522 µg/mL
Neutralization IC80 [14]: 6.58 µg/mL
Neutralization IC90 [14]: > 10 µg/mL
Neutralization IC95 [14]: > 10 µg/mL
neutralization IC50 [14]: 1.46 µg/mL

5123_A06 (PGT-125) (antibody)
Neutralization by PGT-125, IC50 [15]: 5.78 µg/mL
Neutralization by PGT-125, IC80 [15]: > 10 µg/mL
Neutralization by PGT-125, IC90 [15]: > 10 µg/mL
Neutralization by PGT-125, IC95 [15]: > 10 µg/mL
Neutralization by PGT-125, IC50 [16]: 0.0359 µg/mL
Neutralization by PGT-125, IC80 [16]: 0.133 µg/mL
Neutralization by PGT-125, IC90 [16]: 0.288 µg/mL
Neutralization by PGT-125, IC95 [16]: 0.597 µg/mL
Neutralization by PGT-125, IC50 [17]: 0.0214 µg/mL
Neutralization by PGT-125, IC80 [17]: 0.0738 µg/mL
Neutralization by PGT-125, IC90 [17]: 0.156 µg/mL
Neutralization by PGT-125, IC95 [17]: 0.323 µg/mL

5141_B17 (PGT-126) (antibody)
Neutralization IC80 [18]: 0.0411 µg/mL
Neutralization IC90 [18]: 0.084 µg/mL
Neutralization IC95 [18]: 0.162 µg/mL
neutralization IC50 [18]: 0.012 µg/mL
Neutralization IC80 [19]: 0.145 µg/mL
Neutralization IC90 [19]: 0.553 µg/mL
Neutralization IC95 [19]: 2.45 µg/mL
neutralization IC50 [19]: 0.0181 µg/mL
Neutralization IC80 [20]: > 10 µg/mL
Neutralization IC90 [20]: > 10 µg/mL
Neutralization IC95 [20]: > 10 µg/mL
neutralization IC50 [20]: > 10 µg/mL
Neutralization IC80 [21]: > 10 µg/mL
Neutralization IC90 [21]: > 10 µg/mL
Neutralization IC95 [21]: > 10 µg/mL
neutralization IC50 [21]: > 10 µg/mL
Neutralization IC80 [22]: 0.0168 µg/mL
Neutralization IC90 [22]: 0.0359 µg/mL
Neutralization IC95 [22]: 0.0728 µg/mL
neutralization IC50 [22]: 0.0046 µg/mL

5329_C19 (PGT-136) (antibody)
Neutralization IC80 [23]: > 10 µg/mL
Neutralization IC90 [23]: > 10 µg/mL
Neutralization IC95 [23]: > 10 µg/mL
neutralization IC50 [23]: 0.738 µg/mL
Neutralization IC80 [24]: > 10 µg/mL
Neutralization IC90 [24]: > 10 µg/mL
Neutralization IC95 [24]: > 10 µg/mL
neutralization IC50 [24]: > 10 µg/mL
Neutralization IC80 [25]: > 10 µg/mL
Neutralization IC90 [25]: > 10 µg/mL
Neutralization IC95 [25]: > 10 µg/mL
neutralization IC50 [25]: > 10 µg/mL
Neutralization IC80 [26]: > 10 µg/mL
Neutralization IC90 [26]: > 10 µg/mL
Neutralization IC95 [26]: > 10 µg/mL
neutralization IC50 [26]: > 10 µg/mL

PGV04 (antibody)
IC50, single-round pseudovirus neutralization [27]: 1.23 µg/mL
IC50, single-round pseudovirus neutralization [28]: 0.032 µg/mL
IC50 [29]: 0.175 µg/mL
